This is an account of results in the supplement of paper PMC6757056.

B1: library; a variant is named by its letters at N, in order (parent)
chain: GCUGUCACCGAGAAACUGUGAAGUAUAUCUUAAACCUGGGCACUUAAAAGAUAUAUGGAGUUAGUAGUGCAACCUGCUCGGUCUGAUGAGUCCNNNNNNGGACGAAACAGC

Series [1] covers variants of B1. Description: FACS-Seq fitted mean relative fluorescence mCherry/BFP without ligand (log10 relative fluorescence); HEK293T; ligand: cyclic di-GMP (c-di-GMP-II aptamer); higher = higher reporter protein expression. The settings on record: ligand present: no. In outline:
(§1)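 HEK293T libraries were made by lentiviral transduction with a ribozyme-switch mCherry reporter and an EF1α-BFP marker, enriched, and incubated with or without ligand for 48 h. Cells were sorted into 6 mCherry/BFP bins, and each bin's genomic DNA was PCR-amplified, barcoded and run on MiSeq. Fluorescence was derived by normal fitting of the bin counts. The fitted log10(mCherry/BFP) mean was scaled to five spiked-in control ribozymes.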

Series [2] covers variants of B1. Description: normalized RNA/DNA level without ligand (relative to sTRSVctl = 100) (log10 (% of sTRSVctl)); HEK293T; ligand: cyclic di-GMP (c-di-GMP-II aptamer); higher = less ribozyme self-cleavage, higher mRNA level. The settings on record: reporter: mCherry (pCS4076), ligand present: no. An outline of the steps:
(§2)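 HEK293T cells were transfected with library plasmids carrying ribozyme switches linked to an mCherry reporter, or an eGFP reporter in some ligand experiments, at 4 µg per well of a 6-well plate, with any ligand added 1 h beforehand. After 72 h, total RNA was extracted with EDTA, reverse-transcribed, amplified, barcoded and sequenced. RNA level was defined as RNA reads over DNA reads, normalized to a spiked-in non-cleaving sequence or to the top-ranked sequences. That value was multiplied by 100 and converted to log10, the top set was 25 sequences, and only sequences with ≥100 DNA reads were retained.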

The variants in series [3] derive from B1. Description: FACS-Seq fitted mean relative fluorescence mCherry/BFP with ligand (log10 relative fluorescence); HEK293T; ligand: cyclic di-GMP (c-di-GMP-II aptamer); ligand concentration (+) FACS-Seq: 1 mM; higher = higher reporter protein expression. The note with it: ligand present: yes. An outline of the steps:
as §1

The variants in series [4] derive from B1. Description: normalized RNA/DNA level with ligand (relative to sTRSVctl = 100) (log10 (% of sTRSVctl)); HEK293T; ligand: cyclic di-GMP (c-di-GMP-II aptamer); ligand concentration (+) RNA-Seq: 1 mM; higher = less ribozyme self-cleavage, higher mRNA level. The note with it: reporter: mCherry (pCS4076), ligand present: yes. In outline:
as §2

± gives the standard deviation of the averaged measurements.

Consider UUGCGU, for which the figures for the “FACS-Seq fitted mean (log10)” value in series [1] and in series [3] were -0.322 ± 0.017 and -0.00149 ± 0.0032, respectively. Further, the “normalized RNA/DNA level without ligand (log10)” value in series [2] came out at 1.69 ± 0.035. Also, the “normalized RNA/DNA level with ligand (log10)” value in series [4] was 1.86 ± 0.084.

Regarding AUGACU, the “FACS-Seq fitted mean (log10)” value is -1.21 ± 0.091 in series [1] and -0.93 ± 0.06 in series [3]. Moreover, the “normalized RNA/DNA level without ligand (log10)” value in series [2] was determined as 1.71 ± 0.0041. Also, the “normalized RNA/DNA level with ligand (log10)” value in series [4] came out at 1.85 ± 0.11.

On to CUAUUA, for which the entries for the “FACS-Seq fitted mean (log10)” value in series [1] and in series [3] were -0.459 ± 0.052 and -0.243 ± 0.052, respectively. In addition, the “normalized RNA/DNA level without ligand (log10)” value in series [2] was determined as 1.38 ± 0.033. Also, the “normalized RNA/DNA level with ligand (log10)” value in series [4] worked out at 1.6 ± 0.064.

Take UUAAUG: the figures for the “FACS-Seq fitted mean (log10)” value in series [1] and in series [3] were -0.155 ± 0.022 and 0.183 ± 0.0019, respectively. In series [2], the “normalized RNA/DNA level without ligand (log10)” value worked out at 1.6 ± 0.035. The “normalized RNA/DNA level with ligand (log10)” value in series [4] was determined as 1.79 ± 0.071.

Turning to CUCUUG, the entries for the “FACS-Seq fitted mean (log10)” value in series [1] and in series [3] were 0.116 ± 0.092 and 0.381 ± 0.043, respectively. For the same variant, the “normalized RNA/DNA level without ligand (log10)” value in series [2] was found to be 1.73 ± 0.029. Also, the “normalized RNA/DNA level with ligand (log10)” value in series [4] came to 1.86 ± 0.096.

Turning to CUCUUA, the figures for the “FACS-Seq fitted mean (log10)” value in series [1] and in series [3] were -0.241 ± 0.082 and -0.0535 ± 0.053, respectively. In addition, in series [2], the “normalized RNA/DNA level without ligand (log10)” value was found to be 1.46 ± 0.067. Moreover, the “normalized RNA/DNA level with ligand (log10)” value in series [4] came to 1.65 ± 0.11.

GUGAGA: the “FACS-Seq fitted mean (log10)” value was -0.476 ± 0.052 in series [1] and -0.164 ± 0.051 in series [3]. The “normalized RNA/DNA level without ligand (log10)” value in series [2] stood at 1.41 ± 0.058. In addition, the “normalized RNA/DNA level with ligand (log10)” value in series [4] was found to be 1.6 ± 0.089.

For CUCGAA, the “FACS-Seq fitted mean (log10)” value is -0.00262 ± 0.0023 in series [1] and 0.32 ± 0.035 in series [3]. The “normalized RNA/DNA level without ligand (log10)” value in series [2] was determined as 1.41 ± 0.12. Besides, the “normalized RNA/DNA level with ligand (log10)” value in series [4] amounted to 1.6 ± 0.097.

For GUGGAU, the entries for the “FACS-Seq fitted mean (log10)” value in series [1] and in series [3] were -0.528 ± 0.045 and -0.192 ± 0.024, respectively. Further, in series [2], the “normalized RNA/DNA level without ligand (log10)” value was 1.52 ± 0.093. Also, the “normalized RNA/DNA level with ligand (log10)” value in series [4] is 1.72 ± 0.072.

On to GUGGAA, for which the “FACS-Seq fitted mean (log10)” value in series [1] was -0.382 ± 0.021; in series [3] it was -0.0891 ± 0.076. Moreover, the “normalized RNA/DNA level without ligand (log10)” value in series [2] worked out at 1.4 ± 0.087. In addition, the “normalized RNA/DNA level with ligand (log10)” value in series [4] stood at 1.63 ± 0.092.

Regarding GUGGAC, the “FACS-Seq fitted mean (log10)” value in series [1] was -0.519 ± 0.08; in series [3], -0.171 ± 0.053. The “normalized RNA/DNA level without ligand (log10)” value in series [2] is 1.55 ± 0.092. In series [4], the “normalized RNA/DNA level with ligand (log10)” value worked out at 1.75 ± 0.095.

For the variant UUCACU, the results for the “FACS-Seq fitted mean (log10)” value in series [1] and in series [3] were -0.67 ± 0.15 and -0.577 ± 0.18, respectively. For the same variant, in series [2], the “normalized RNA/DNA level without ligand (log10)” value was found to be 1.73 ± 0.018. Besides, the “normalized RNA/DNA level with ligand (log10)” value in series [4] is 1.85 ± 0.1.

On to GUCUUG, for which the “FACS-Seq fitted mean (log10)” value in series [1] was -0.245 ± 0.061; in series [3] it was 0.124 ± 0.019. The “normalized RNA/DNA level without ligand (log10)” value in series [2] was 1.61 ± 0.052. Moreover, in series [4], the “normalized RNA/DNA level with ligand (log10)” value was found to be 1.77 ± 0.12.

For the variant AUACGA, the “FACS-Seq fitted mean (log10)” value in series [1] is -0.518 ± 0.09; in series [3] it was -0.228 ± 0.13. Besides, the “normalized RNA/DNA level without ligand (log10)” value in series [2] was 1.46 ± 0.08. Also, in series [4], the “normalized RNA/DNA level with ligand (log10)” value was 1.67 ± 0.14.

GUGAUC: the “FACS-Seq fitted mean (log10)” value in series [1] was -0.464 ± 0.047; in series [3] it was -0.114 ± 0.0038. Moreover, the “normalized RNA/DNA level without ligand (log10)” value in series [2] came to 1.15 ± 0.17. In addition, the “normalized RNA/DNA level with ligand (log10)” value in series [4] is 1.27 ± 0.017.

On to GUGAUU, for which the “FACS-Seq fitted mean (log10)” value in series [1] is -0.56 ± 0.007; in series [3], -0.311 ± 0.025. Also, in series [2], the “normalized RNA/DNA level without ligand (log10)” value was 1.621 ± 0.01. Besides, in series [4], the “normalized RNA/DNA level with ligand (log10)” value amounted to 1.79 ± 0.088.

GUGAUG: the figures for the “FACS-Seq fitted mean (log10)” value in series [1] and in series [3] were -0.401 ± 0.17 and -0.137 ± 0.01, respectively. Further, the “normalized RNA/DNA level without ligand (log10)” value in series [2] stood at 1.54 ± 0.09. The “normalized RNA/DNA level with ligand (log10)” value in series [4] is 1.73 ± 0.068.
